Test results as given in US20140273151.

Target: T1, Substrate No. 19
T1 chain: DEVD

B1: caspase-3 enzyme (Biovision Inc., Mountain View, Calif.) (protein)
chain: SGISLDNSYKMDYPEMGLCIIINNKNFHKSTGMTSRSGTDVDAANLRETFRNLKYEVRNKNDLTREEIVELMRDVSKEDHSKRSSFVCVLLSHGEEGIIFGTNGPVDLKKITNFFRGDRCRSLTGKPKLFIIQACRGTELDCGIETDSGVDDDMACHKIPVEADFLYAYSTAPGYYSWRNSKDGSWFIQSLCAMLKQYADKLEFMHILTRVNRKVATEFESFSFDATFHAKKQIPCIVSMLTKELYFYH
fluorescence signal over time (excitation 485 nm, emission 530 nm) in the presence of dsDNA; enzymatic cleavage assay: The data demonstrates that Substrate No. 19 is a substrate for caspase-3 enzyme.
